Assay results: PMC2239301

Target: Smy2p fused to the LexA-DNA binding domain (S. cerevisiae)
Test: two-hybrid

Smy2p fused to the LexA-DNA binding domain (S. cerevisiae), sequence (P32909 whole entry, the tested form may be a part): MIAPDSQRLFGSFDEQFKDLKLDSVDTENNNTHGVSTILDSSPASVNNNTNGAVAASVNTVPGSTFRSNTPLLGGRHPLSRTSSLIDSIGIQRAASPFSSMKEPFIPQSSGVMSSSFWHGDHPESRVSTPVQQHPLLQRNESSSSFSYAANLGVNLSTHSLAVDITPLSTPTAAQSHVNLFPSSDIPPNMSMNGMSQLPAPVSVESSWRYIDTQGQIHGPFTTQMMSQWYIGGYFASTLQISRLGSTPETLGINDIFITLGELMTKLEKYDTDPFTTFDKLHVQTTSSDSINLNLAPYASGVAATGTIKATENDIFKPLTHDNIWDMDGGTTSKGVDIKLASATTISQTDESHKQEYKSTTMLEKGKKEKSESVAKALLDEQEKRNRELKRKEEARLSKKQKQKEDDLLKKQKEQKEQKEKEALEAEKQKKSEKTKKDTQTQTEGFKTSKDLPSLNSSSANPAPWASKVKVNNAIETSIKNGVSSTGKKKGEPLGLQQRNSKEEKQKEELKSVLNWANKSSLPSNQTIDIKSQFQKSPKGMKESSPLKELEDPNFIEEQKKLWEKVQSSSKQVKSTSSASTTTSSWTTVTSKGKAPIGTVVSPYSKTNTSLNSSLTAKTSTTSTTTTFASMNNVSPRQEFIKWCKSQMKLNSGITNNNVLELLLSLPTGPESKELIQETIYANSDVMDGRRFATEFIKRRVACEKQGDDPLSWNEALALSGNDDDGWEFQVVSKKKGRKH

B1: Sec23p connected to the B42 acidic activation domain (natural protein)
chain: MDFETNEDINGVRFTWNVFPSTRSDANSNVVPVGCLYTPLKEYDELNVAPYNPVVCSGPHCKSILNPYCVIDPRNSSWSCPICNSRNHLPPQYTNLSQENMPLELQSTTIEYITNKPVTVPPIFFFVVDLTSETENLDSLKESIITSLSLLPPNALIGLITYGNVVQLHDLSSETIDRCNVFRGDREYQLEALTEMLTGQKPTGPGGAASHLPNAMNKVTPFSLNRFFLPLEQVEFKLNQLLENLSPDQWSVPAGHRPLRATGSALNIASLLLQGCYKNIPARIILFASGPGTVAPGLIVNSELKDPLRSHHDIDSDHAQHYKKACKFYNQIAQRVAANGHTVDIFAGCYDQIGMSEMKQLTDSTGGVLLLTDAFSTAIFKQSYLRLFAKDEEGYLKMAFNGNMAVKTSKDLKVQGLIGHASAVKKTDANNISESEIGIGATSTWKMASLSPYHSYAIFFEIANTAANSNPMMSAPGSADRPHLAYTQFITTYQHSSGTNRIRVTTVANQLLPFGTPAIAASFDQEAAAVLMARIAVHKAETDDGADVIRWLDRTLIKLCQKYADYNKDDPQSFRLAPNFSLYPQFTYYLRRSQFLSVFNNSPDETAFYRHIFTREDTTNSLIMIQPTLTSFSMEDDPQPVLLDSISVKPNTILLLDTFFFILIYHGEQIAQWRKAGYQDDPQYADFKALLEEPKLEAAELLVDRFPLPRFIDTEAGGSQARFLLSKLNPSDNYQDMARGGSTIVLTDDVSLQNFMTHLQQVAVSGQA
Q: How did the β-galactosidase activity turn out when B1 was run?
A: 26 units
